{"source": "the supplement of paper PMC10567573", "parents": {"B1": {"name": "CROP (parent)", "chain": "VFGRGDNISDVSKFLEDDKWMEE"}}}
{"variants_of": "B1", "experiment": "protein stability index of a GFP-peptide fusion (GPS, HEK-293T) (PSI 1-6); higher = more stable", "conditions": "c terminus: native"}
{"variant": "VFGRGDNISDVSKWLEDDKWMEE", "note": "[F14W]", "protein stability index": 1.96}
{"variant": "VFGRGDNISDVSKYLEDDKWMEE", "note": "[F14Y]", "protein stability index": 2.03}
{"variant": "VFGRGDNISDVSKFAEDDKWMEE", "note": "[L15A]", "protein stability index": 3.09}
{"variant": "VFGRGDNISDVSKFCEDDKWMEE", "note": "[L15C]", "protein stability index": 2.64}
{"variant": "VFGRGDNISDVSKFDEDDKWMEE", "note": "[L15D]", "protein stability index": 1.85}
{"variant": "VFGRGDNISDVSKFEEDDKWMEE", "note": "[L15E]", "protein stability index": 3.77}
{"variant": "VFGRGDNISDVSKFFEDDKWMEE", "note": "[L15F]", "protein stability index": 1.06}
{"variant": "VFGRGDNISDVSKFGEDDKWMEE", "note": "[L15G]", "protein stability index": 2.8}
{"variant": "VFGRGDNISDVSKFHEDDKWMEE", "note": "[L15H]", "protein stability index": 3.35}
{"variant": "VFGRGDNISDVSKFIEDDKWMEE", "note": "[L15I]", "protein stability index": 1.93}
{"variant": "VFGRGDNISDVSKFKEDDKWMEE", "note": "[L15K]", "protein stability index": 3.01}
{"variant": "VFGRGDNISDVSKFMEDDKWMEE", "note": "[L15M]", "protein stability index": 2.06}
{"variant": "VFGRGDNISDVSKFNEDDKWMEE", "note": "[L15N]", "protein stability index": 3.32}
{"variant": "VFGRGDNISDVSKFPEDDKWMEE", "note": "[L15P]", "protein stability index": 2.81}
{"variant": "VFGRGDNISDVSKFQEDDKWMEE", "note": "[L15Q]", "protein stability index": 3.7}
{"variant": "VFGRGDNISDVSKFREDDKWMEE", "note": "[L15R]", "protein stability index": 2.91}
{"variant": "VFGRGDNISDVSKFSEDDKWMEE", "note": "[L15S]", "protein stability index": 2.28}
{"variant": "VFGRGDNISDVSKFTEDDKWMEE", "note": "[L15T]", "protein stability index": 3.47}
{"variant": "VFGRGDNISDVSKFVEDDKWMEE", "note": "[L15V]", "protein stability index": 1.94}
{"variant": "VFGRGDNISDVSKFWEDDKWMEE", "note": "[L15W]", "protein stability index": 2.1}
{"variant": "VFGRGDNISDVSKFYEDDKWMEE", "note": "[L15Y]", "protein stability index": 2.21}
{"variant": "VFGRGDNISDVSKFLADDKWMEE", "note": "[E16A]", "protein stability index": 2.44}
{"variant": "VFGRGDNISDVSKFLCDDKWMEE", "note": "[E16C]", "protein stability index": 1.46}
{"variant": "VFGRGDNISDVSKFLFDDKWMEE", "note": "[E16F]", "protein stability index": 2.42}
{"variant": "VFGRGDNISDVSKFLGDDKWMEE", "note": "[E16G]", "protein stability index": 2.4}
{"variant": "VFGRGDNISDVSKFLHDDKWMEE", "note": "[E16H]", "protein stability index": 1.79}
{"variant": "VFGRGDNISDVSKFLIDDKWMEE", "note": "[E16I]", "protein stability index": 1.65}
{"variant": "VFGRGDNISDVSKFLKDDKWMEE", "note": "[E16K]", "protein stability index": 1.97}
{"variant": "VFGRGDNISDVSKFLLDDKWMEE", "note": "[E16L]", "protein stability index": 2.72}
{"variant": "VFGRGDNISDVSKFLMDDKWMEE", "note": "[E16M]", "protein stability index": 1.1}
{"variant": "VFGRGDNISDVSKFLNDDKWMEE", "note": "[E16N]", "protein stability index": 3.11}
{"variant": "VFGRGDNISDVSKFLPDDKWMEE", "note": "[E16P]", "protein stability index": 2.12}
{"variant": "VFGRGDNISDVSKFLQDDKWMEE", "note": "[E16Q]", "protein stability index": 1.95}
{"variant": "VFGRGDNISDVSKFLSDDKWMEE", "note": "[E16S]", "protein stability index": 2.03}
{"variant": "VFGRGDNISDVSKFLTDDKWMEE", "note": "[E16T]", "protein stability index": 1.66}
{"variant": "VFGRGDNISDVSKFLVDDKWMEE", "note": "[E16V]", "protein stability index": 2.59}
{"variant": "VFGRGDNISDVSKFLEADKWMEE", "note": "[D17A]", "protein stability index": 2.29}
{"variant": "VFGRGDNISDVSKFLEEDKWMEE", "note": "[D17E]", "protein stability index": 2.41}
{"variant": "VFGRGDNISDVSKFLEFDKWMEE", "note": "[D17F]", "protein stability index": 3.45}
{"variant": "VFGRGDNISDVSKFLEHDKWMEE", "note": "[D17H]", "protein stability index": 1.34}
{"variant": "VFGRGDNISDVSKFLEIDKWMEE", "note": "[D17I]", "protein stability index": 3.52}
{"variant": "VFGRGDNISDVSKFLEKDKWMEE", "note": "[D17K]", "protein stability index": 2.83}
{"variant": "VFGRGDNISDVSKFLELDKWMEE", "note": "[D17L]", "protein stability index": 1.29}
{"variant": "VFGRGDNISDVSKFLENDKWMEE", "note": "[D17N]", "protein stability index": 2.26}
{"variant": "VFGRGDNISDVSKFLEQDKWMEE", "note": "[D17Q]", "protein stability index": 2}
{"variant": "VFGRGDNISDVSKFLERDKWMEE", "note": "[D17R]", "protein stability index": 2.25}
{"variant": "VFGRGDNISDVSKFLESDKWMEE", "note": "[D17S]", "protein stability index": 1.52}
{"variant": "VFGRGDNISDVSKFLETDKWMEE", "note": "[D17T]", "protein stability index": 2.04}
{"variant": "VFGRGDNISDVSKFLEVDKWMEE", "note": "[D17V]", "protein stability index": 1}
{"variant": "VFGRGDNISDVSKFLEYDKWMEE", "note": "[D17Y]", "protein stability index": 2.73}
{"variant": "VFGRGDNISDVSKFLEDAKWMEE", "note": "[D18A]", "protein stability index": 1.3}
{"variant": "VFGRGDNISDVSKFLEDCKWMEE", "note": "[D18C]", "protein stability index": 1.47}
{"variant": "VFGRGDNISDVSKFLEDFKWMEE", "note": "[D18F]", "protein stability index": 1.66}
{"variant": "VFGRGDNISDVSKFLEDGKWMEE", "note": "[D18G]", "protein stability index": 2.06}
{"variant": "VFGRGDNISDVSKFLEDHKWMEE", "note": "[D18H]", "protein stability index": 1.49}
{"variant": "VFGRGDNISDVSKFLEDKKWMEE", "note": "[D18K]", "protein stability index": 2.69}
{"variant": "VFGRGDNISDVSKFLEDLKWMEE", "note": "[D18L]", "protein stability index": 1.97}
{"variant": "VFGRGDNISDVSKFLEDNKWMEE", "note": "[D18N]", "protein stability index": 2.44}
{"variant": "VFGRGDNISDVSKFLEDPKWMEE", "note": "[D18P]", "protein stability index": 3.66}
{"variant": "VFGRGDNISDVSKFLEDQKWMEE", "note": "[D18Q]", "protein stability index": 2.98}
{"variant": "VFGRGDNISDVSKFLEDSKWMEE", "note": "[D18S]", "protein stability index": 1.31}
{"variant": "VFGRGDNISDVSKFLEDTKWMEE", "note": "[D18T]", "protein stability index": 1.78}
{"variant": "VFGRGDNISDVSKFLEDVKWMEE", "note": "[D18V]", "protein stability index": 1.77}
{"variant": "VFGRGDNISDVSKFLEDWKWMEE", "note": "[D18W]", "protein stability index": 2.04}
{"variant": "VFGRGDNISDVSKFLEDDAWMEE", "note": "[K19A]", "protein stability index": 1.27}
{"variant": "VFGRGDNISDVSKFLEDDCWMEE", "note": "[K19C]", "protein stability index": 1.62}
{"variant": "VFGRGDNISDVSKFLEDDDWMEE", "note": "[K19D]", "protein stability index": 2.63}
{"variant": "VFGRGDNISDVSKFLEDDEWMEE", "note": "[K19E]", "protein stability index": 3.41}
{"variant": "VFGRGDNISDVSKFLEDDFWMEE", "note": "[K19F]", "protein stability index": 3.11}
{"variant": "VFGRGDNISDVSKFLEDDGWMEE", "note": "[K19G]", "protein stability index": 1.95}
{"variant": "VFGRGDNISDVSKFLEDDHWMEE", "note": "[K19H]", "protein stability index": 1.91}
{"variant": "VFGRGDNISDVSKFLEDDIWMEE", "note": "[K19I]", "protein stability index": 2.28}
{"variant": "VFGRGDNISDVSKFLEDDLWMEE", "note": "[K19L]", "protein stability index": 1.89}
{"variant": "VFGRGDNISDVSKFLEDDMWMEE", "note": "[K19M]", "protein stability index": 1.21}
{"variant": "VFGRGDNISDVSKFLEDDNWMEE", "note": "[K19N]", "protein stability index": 2.35}
{"variant": "VFGRGDNISDVSKFLEDDPWMEE", "note": "[K19P]", "protein stability index": 3.01}
{"variant": "VFGRGDNISDVSKFLEDDRWMEE", "note": "[K19R]", "protein stability index": 2.5}
{"variant": "VFGRGDNISDVSKFLEDDSWMEE", "note": "[K19S]", "protein stability index": 3.53}
{"variant": "VFGRGDNISDVSKFLEDDTWMEE", "note": "[K19T]", "protein stability index": 1.92}
{"variant": "VFGRGDNISDVSKFLEDDVWMEE", "note": "[K19V]", "protein stability index": 2.27}
{"variant": "VFGRGDNISDVSKFLEDDWWMEE", "note": "[K19W]", "protein stability index": 1.75}
{"variant": "VFGRGDNISDVSKFLEDDYWMEE", "note": "[K19Y]", "protein stability index": 2.22}
{"variant": "VFGRGDNISDVSKFLEDDKAMEE", "note": "[W20A]", "protein stability index": 4.2}
{"variant": "VFGRGDNISDVSKFLEDDKCMEE", "note": "[W20C]", "protein stability index": 4.08}
{"variant": "VFGRGDNISDVSKFLEDDKDMEE", "note": "[W20D]", "protein stability index": 4.04}
{"variant": "VFGRGDNISDVSKFLEDDKEMEE", "note": "[W20E]", "protein stability index": 4.25}
{"variant": "VFGRGDNISDVSKFLEDDKFMEE", "note": "[W20F]", "protein stability index": 4.18}
{"variant": "VFGRGDNISDVSKFLEDDKGMEE", "note": "[W20G]", "protein stability index": 3.92}
{"variant": "VFGRGDNISDVSKFLEDDKHMEE", "note": "[W20H]", "protein stability index": 4.34}
{"variant": "VFGRGDNISDVSKFLEDDKIMEE", "note": "[W20I]", "protein stability index": 3.97}
{"variant": "VFGRGDNISDVSKFLEDDKKMEE", "note": "[W20K]", "protein stability index": 3.78}
{"variant": "VFGRGDNISDVSKFLEDDKLMEE", "note": "[W20L]", "protein stability index": 2.54}
{"variant": "VFGRGDNISDVSKFLEDDKMMEE", "note": "[W20M]", "protein stability index": 3.12}
{"variant": "VFGRGDNISDVSKFLEDDKNMEE", "note": "[W20N]", "protein stability index": 4.72}
{"variant": "VFGRGDNISDVSKFLEDDKQMEE", "note": "[W20Q]", "protein stability index": 3.4}
{"variant": "VFGRGDNISDVSKFLEDDKRMEE", "note": "[W20R]", "protein stability index": 3.94}
{"variant": "VFGRGDNISDVSKFLEDDKSMEE", "note": "[W20S]", "protein stability index": 4.28}
